Test [1] concerns HuVECs (Human Umbilical Vein Endothelial Cells). As to the kind of experiment: Cell viability of HuVECs after introduction of clone. As to conditions: 16 hour time point. The class given is cell-based. From the text: In addition to cycling these library sequences (obtained as described above) through an additional round of negative selections, 50 clones were taken from each of the Cycle 5, day five pools for sequence analysis. […] Both of the BID clones obtained from these negative selections encode N-terminal truncations of the native protein (BID Clone #1 encodes amino acids 33-195, BID Clone #2 encodes amino acids 76-195, See FIG. 9). BID clone #1 was reintroduced into fresh, naive HT29 cells and floater rates were compared with cells that had been mock infected or infected with the control vector, pVT324. […] In a similar experiment, BID clone #1 was introduced into HuVECs (Human Umbilical Vein Endothelial Cells, Clonetics/Biowhittaker) and cell viability was followed over the course of 16 hours. While control cells gave a background of 1% cell death at the 16 hour time point, 80% of the cells in the BID clone #1-infected culture died during the same period of time.

The test system of another test is HT29 colon cancer cells. As to the kind of experiment: HT29 floater assay (negative selection). The following applies: individual clone reintroduced into HT29 cells. The class given is cell-based. The procedure:
HT29 cells were tested for feasibility in the floater cell assay as follows. Briefly, six flasks were inoculated with 6.25×10^5 HT29 cells/flask on Day 0. On Day 1, after the cells had been allowed to adhere to the solid support, two of these flasks were infected with retroviral supernatant containing the retroviral vector pVT324, which includes a selectable drug resistant marker (e.g. neomycin), and which constitutively expresses a green fluorescent protein. Of the remaining four flasks, two were mock infected (i.e. exposed to all of the same reagents/conditions as flasks 1 and 2, minus the retrovirus, see “Example 3C”) and two were left undisturbed. On Day 2, this procedure was repeated (i.e. a double infection). On Day 3 (and subsequently on Day 5) one flask was selected from each of the three groups and processed by separating and counting the floater and adherent cell populations. In the case of the floater cell population, the media was collected, centrifuged at 200×g for 10 minutes, and resuspended in PBS prior to removing a sample for counting on a hemocytometer. For the adherent cell population, cells were first removed from the flask by trypsinization, centrifuged, and then processed for analysis in a fashion analogous to the floater cells. To determine the inherent background level of floater cells present in the population, the ratio of the number of floater cells to the total number of cells (adherent cells+floater cells) was analyzed on both the Day 3 and Day 5 flasks that had not been manipulated. These numbers were compared with the analogous numbers taken from infected and mock-infected flasks to determine whether the retrovirus or transfection procedures altered background floater rates. To determine the susceptibility of HT29 cells to retroviral infection, the fraction of cells that expressed GFP in pVT324 infected flasks was calculated using flow cytometry.
Twenty T175 flasks were seeded with 2.2×10^6 HT29 cells/flask in McCoy's 5A media (Gibco BRL) modified with 10% FBS. On Day 1, each flask was infected (4 μg/ml polybrene, 50% volume) with a retroviral supernatant containing a commercially obtained brain cDNA library (“Example Three” above). On Day 2 the media was changed. On Day 3 both the floater and adherent cell populations were collected (separately) from the twenty flasks. Approximately 652,500 floaters were isolated from a theoretical background of 4.2×10^7 adherents (1.5% floaters) and frozen down for future studies. […] Additional floater cells were then collected Day 5, where the collection and counting procedures were repeated and some 7.8×10^6 floaters and 7.6×10^8 adherents were counted (1.03% floaters). […] The floater populations of Days 3 and 5 were then combined and readied for a genomic DNA prep using a QIAamp kit (Qiagen) following standard procedures. Briefly, some 9×10^6 floater cells in PBS were lysed to release gDNA. This material was passed over a QIAamp column that was then washed several times to remove protein and RNA contaminants. Twenty-seven micrograms of genomic DNA were then eluted from the columns with dH2O and treated with RNAse A to eliminate any RNA contamination. This gDNA was then subjected to PCR procedures to amplify the library sequences encoded therein. […]

These results are taken from patent US6582899B1, “Methods for identifying agents that cause a lethal phenotype, and agents thereof” (Deltagen Proteomics, Inc., priority 2000, dated 2003).

B1: BID clone #1: N-terminal truncation of BID (BH3 Interacting Domain Death Agonist), encodes amino acids 33-195 (protein, UniProt P55957 33-195, looked up, fragment)
chain: FRRELDALGHELPVLAPQWEGYDELQTDGNRSSHSRLGRIEADSESQEDIIRNIARHLAQVGDSMDRSIPPGLVNGLALQLRNTSRSEEDRNRDLATALEQLLQAYPRDMEKEKTMLVLALLLAKKVASHTPSLLRDVFHTTVNFINQNLRTYVRSLARNGMD
In test [1], B1 had a cells that died of 80%. Also, in the test on HT29 colon cancer cells, the floater rate entry was “roughly 18%”.
